Data taken from PMC2602806.
Read-outs that look alike come from different tables or passages of the source.

What was measured:
Experiment in all cases: X-ray crystallography
[1] = target: T1, VP1 RNA-dependent RNA polymerase (cVP1) (Simian rotavirus A SA11 (group A; …, UniProt O37061 1-1088)
T1 sequence: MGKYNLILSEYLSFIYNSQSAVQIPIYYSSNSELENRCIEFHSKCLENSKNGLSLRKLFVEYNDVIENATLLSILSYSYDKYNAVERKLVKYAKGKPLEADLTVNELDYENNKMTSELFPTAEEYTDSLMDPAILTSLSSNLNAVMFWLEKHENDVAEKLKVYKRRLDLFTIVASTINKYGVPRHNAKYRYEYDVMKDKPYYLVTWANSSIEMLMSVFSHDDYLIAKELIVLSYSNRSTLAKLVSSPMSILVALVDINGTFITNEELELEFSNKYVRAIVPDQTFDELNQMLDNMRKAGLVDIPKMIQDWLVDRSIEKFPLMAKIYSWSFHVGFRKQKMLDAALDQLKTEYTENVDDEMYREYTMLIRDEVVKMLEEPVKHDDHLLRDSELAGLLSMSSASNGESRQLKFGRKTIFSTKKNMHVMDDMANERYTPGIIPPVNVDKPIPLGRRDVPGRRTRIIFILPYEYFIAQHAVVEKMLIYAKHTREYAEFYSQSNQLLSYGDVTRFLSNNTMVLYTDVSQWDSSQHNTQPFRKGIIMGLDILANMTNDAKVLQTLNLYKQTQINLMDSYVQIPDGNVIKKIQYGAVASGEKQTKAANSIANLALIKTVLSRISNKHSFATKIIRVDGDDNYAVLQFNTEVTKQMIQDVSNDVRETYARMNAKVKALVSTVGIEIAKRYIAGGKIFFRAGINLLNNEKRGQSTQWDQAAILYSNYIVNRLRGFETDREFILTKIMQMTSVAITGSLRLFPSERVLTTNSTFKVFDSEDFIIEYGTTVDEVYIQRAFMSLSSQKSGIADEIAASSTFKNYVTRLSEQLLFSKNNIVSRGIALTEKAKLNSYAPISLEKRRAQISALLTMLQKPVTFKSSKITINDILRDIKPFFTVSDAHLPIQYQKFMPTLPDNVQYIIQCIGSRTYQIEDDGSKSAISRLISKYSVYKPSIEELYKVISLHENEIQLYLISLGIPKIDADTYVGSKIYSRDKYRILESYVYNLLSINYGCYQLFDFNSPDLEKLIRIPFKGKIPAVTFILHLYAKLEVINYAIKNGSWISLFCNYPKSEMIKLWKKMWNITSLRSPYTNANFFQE

[2] = target: T1, VP1 RNA-dependent RNA polymerase (cVP1); remark: listed apart in the source
[3] = target: T1, VP1 RNA-dependent RNA polymerase (cVP1); remark: listed apart in the source
[4] = target: T1, VP1 RNA-dependent RNA polymerase (cVP1); remark: listed apart in the source
[5] = target: T1, VP1 RNA-dependent RNA polymerase (cVP1); remark: listed apart in the source

GGCUUU (ssRNA) [5'CS+]
binding result [1]: binds

UGUGCC (ssRNA) [3'CS+ A3-deletion]
binding result [2]: binds

AAAAGCC (ssRNA) [3'CS-]
binding result [3]: binds

UGUGACC (ssRNA) [3'CS+ wild type]
binding result [4]: binds

UGUGAACC (ssRNA) [3'CS+ A-insertion]
binding result [5]: binds
